The assay addresses peptide of Example 1 (influenza virus). The assay is described as follows: SPR, mAb captured on anti-mouse Fc, peptide injected. On the technique in general: Surface plasmon resonance follows binding to a sensor surface in real time, without labels.

For one molecule, Kd results are on record in patent US20190352376A1.

For orientation: Kd means the free concentration of one partner at which half of the binding sites on the other are occupied at equilibrium, for simple one-to-one binding. The low end stands for higher affinity, the high end for lower affinity.

B1: F211-9D1 (antibody, V domains shown)
VL: DIVMSQSPSSLAVSVGEKVTMSCKSSQSLLNSRNQKNHLAWYQQKPGQSPKLLIYWASTRESGVPDRFSGDGSGTDFTLTISSVKAEDLAVYYCQQYYTYRTFGGGTKLEIK
VH: DVQLQESGPGLVKPSQSLSLTCSVTGYSITSDYYWNWIRQFPGNKLEWMAYIGYDGSKNYNPSLKNRISITRDTSKNQFFLKLNSVTTDDTATYYCTRDRANWDDYFDYWGQGTTLTVSS
Consider B1, for which the equilibrium dissociation constant (Kd) came out at 0.393 nM.
